Results as given in paper PMC12809092 (2025).

What was measured:
[1] = target: T1, PLXNA1-LBD, recombinant human plexinA1 ligand-binding domains (human, UniProt Q9UIW2 27-710); experiment: BLI
T1 chain: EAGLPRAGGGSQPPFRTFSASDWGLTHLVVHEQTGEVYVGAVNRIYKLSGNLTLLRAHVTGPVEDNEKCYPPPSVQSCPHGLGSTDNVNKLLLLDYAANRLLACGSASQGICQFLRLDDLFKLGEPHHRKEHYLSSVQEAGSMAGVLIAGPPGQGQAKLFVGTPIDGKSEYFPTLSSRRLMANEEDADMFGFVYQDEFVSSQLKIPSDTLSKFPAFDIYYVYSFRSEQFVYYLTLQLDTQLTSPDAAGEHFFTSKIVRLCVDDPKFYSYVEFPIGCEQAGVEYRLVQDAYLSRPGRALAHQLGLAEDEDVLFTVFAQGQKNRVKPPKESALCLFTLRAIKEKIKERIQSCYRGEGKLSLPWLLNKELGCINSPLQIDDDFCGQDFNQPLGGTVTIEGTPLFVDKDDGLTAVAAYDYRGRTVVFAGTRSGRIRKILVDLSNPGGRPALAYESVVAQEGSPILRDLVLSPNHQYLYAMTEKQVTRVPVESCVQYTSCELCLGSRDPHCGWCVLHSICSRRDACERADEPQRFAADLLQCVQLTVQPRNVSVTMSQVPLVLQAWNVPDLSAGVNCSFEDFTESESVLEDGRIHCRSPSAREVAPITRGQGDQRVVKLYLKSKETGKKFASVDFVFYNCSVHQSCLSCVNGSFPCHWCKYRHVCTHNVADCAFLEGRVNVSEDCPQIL

[2] = target: PLXNA1-ECD, recombinant human plexinA1 full extracellular domains (human, UniProt Q9UIW2 27-1244); experiment: BLI

B1: aPLXNA1-19-43 Fab (Fab, V domains shown)
VH: EVQLQQSGPELVKPGASVKISCKASGYKFTENYMDWVKQSHGESLEWIGDISPDNGDTSYNQKFRDKATLTVDKSSSTAYMELRSLTSEDSAVYYCAQIIYYDYVGYALDYWGQGTSVTVSS
VL: QIVLTQSPAILSASPGEKVTMSCSVSSSITYMHWYQQKPGTSPKRWIYDTSKLASGVPARFSGSGSGTSFSLTISNMEAEDAATYYCHQRSSYPYSFGGGTKLEIK
koff [1]: 0.000252 s⁻¹ | koff [2]: 0.000111 s⁻¹
